We go through one molecule from publication PMC9691700, “CD147 contributes to SARS-CoV-2-induced pulmonary fibrosis” (Signal Transduction and Targeted Therapy, 2022).

The target of the experiment is T1, His-Spike RBD (40592-V08H) (SARS-CoV-2, UniProt P0DTC2 319-541).
T1 construct: source: bought: Sino Biological
The experiment is described as follows: SPR; Biacore T200, CM5 sensor chip; RBD fixed to the chip by amino coupling; CD147 flowed over; binding time 90 s, dissociation time 120 s. To be noted: both partners purified.

B1: Human His-CD147 (receptor)
chain: GTVFTTVEDLGSKILLTCSLNDSATEVTGHRWLKGGVVLKEDALPGQKTEFKVDSDDQWGEYSCVFLPEPMGTANIQLHGPPRVKAVKSSEHINEGETAMLVCKSESVPPVTDWAWYKITDSEDKALMNGSESRFFVSSSQGRSELHIENLNMEADPGQYRCNGTSSKGSDQAIITLRVRSHLAAL
notes: CD147 (basigin), human; also called human CD147; hCD147
Take B1: binding was put at a Kd of 4.47 µM.
